{"source": "paper PMC5737657", "binders": {"B1": {"name": "vapBC26 promoter DNA (19 bp) (dsDNA)", "DNA 1": "TTCGCGGCTACGCCGACAA", "DNA 2": "TTGTCGGCGTAGCCGCGAA"}, "B2": {"name": "palindromic DNA 'b' (dsDNA)", "DNA 1": "TAATAGAATAATAAGTATCACTCCTTTA", "DNA 2": "TAAAGGAGTGATACTTATTATTCTATTA"}, "B3": {"name": "palindromic DNA 'a' (dsDNA)", "DNA 1": "TATTTTAATAACTTAAAAGT", "DNA 2": "ACTTTTAAGTTATTAAAATA"}, "B4": {"name": "control DNA 'X' (dsDNA)", "DNA 1": "GATTTTTTTTGATTTTTTT", "DNA 2": "AAAAAAATCAAAAAAAATC"}}, "key": {"[1]": {"target": "T1, VapB26 antitoxin (ITC/EMSA) (Mycobacterium tuberculosis, UniProt O53778 1-71)", "T1 sequence (O53778 whole entry)": "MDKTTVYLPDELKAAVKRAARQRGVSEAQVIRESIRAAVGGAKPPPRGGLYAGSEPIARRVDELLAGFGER", "assay": "ITC"}, "[2]": {"target": "T1, VapB26 antitoxin (ITC/EMSA)", "assay": "EMSA"}, "[3]": {"target": "T1, VapB26 antitoxin (ITC/EMSA)", "assay": "ITC", "remark": "listed apart in the source"}, "[4]": {"target": "His6-VapB26 antitoxin (NMR) (Mycobacterium tuberculosis, UniProt O53778 1-71)", "sequence (O53778 whole entry)": "as above", "assay": "NMR"}}}
{"binder": "B1", "values": [{"measurement": "Kd", "setting": "[1]", "value": "4.69 ± 0.81", "unit": "µM"}]}
{"binder": "B2", "values": [{"measurement": "binding result", "setting": "[2]", "value": "no binding"}]}
{"binder": "B3", "values": [{"measurement": "binding result", "setting": "[2]", "value": "no binding"}]}
{"binder": "B4", "values": [{"measurement": "binding result", "setting": "[3]", "value": "no binding"}, {"measurement": "binding result", "setting": "[4]", "value": "no binding"}]}
